Numbered stars: 1 amine (or outer) side, 2 acyl side, 3 side chain; on linkers, the order of the positions; unused ones are H or OH. Bridge positions count the residues as written; N and C are the ends. Square brackets hold non-standard residues; d marks the D form. * marks the point of attachment. C20 diacid = O=C(O)CCCCCCCCCCCCCCCCCCC(=O)*; γGlu = O=C(O)[C@H](CCC(=O)[*:2])N[*:1]; Hyp = O=C(O)[C@@H]1C[C@@H](O)CN1; NMeI = CC[C@H](C)[C@H](NC)C(=O)O; Aad = N[C@@H](CCCC(=O)O)C(=O)O; Orn = NCCC[C@H](N)C(=O)O; Dab = NCC[C@H](N)C(=O)O; Dap = NC[C@H](N)C(=O)O; Sar = CNCC(=O)O
B1: Compound 46 (peptide)
peptide: {C20 diacid-γGlu}-R[Dab]GTATDATERLAHFLQRSSF[Sar]A[NMeI]LSSTEVGSNT[Hyp]-NH2
modifications: lactam 2-7
SMILES: CC[C@H](C)[C@@H](C(=O)N[C@@H](CC(C)C)C(=O)N[C@@H](CO)C(=O)N[C@@H](CO)C(=O)N[C@H](C(=O)N[C@@H](CCC(=O)O)C(=O)N[C@H](C(=O)NCC(=O)N[C@@H](CO)C(=O)N[C@@H](CC(N)=O)C(=O)N[C@H](C(=O)N1C[C@H](O)C[C@H]1C(N)=O)[C@@H](C)O)C(C)C)[C@@H](C)O)N(C)C(=O)[C@H](C)NC(=O)CN(C)C(=O)[C@H](Cc1ccccc1)NC(=O)[C@H](CO)NC(=O)[C@H](CO)NC(=O)[C@H](CCCNC(=N)N)NC(=O)[C@H](CCC(N)=O)NC(=O)[C@H](CC(C)C)NC(=O)[C@H](Cc1ccccc1)NC(=O)[C@H](Cc1c[nH]cn1)NC(=O)[C@H](C)NC(=O)[C@H](CC(C)C)NC(=O)[C@H](CCCNC(=N)N)NC(=O)[C@H](CCC(=O)O)NC(=O)[C@@H](NC(=O)[C@H](C)NC(=O)[C@@H]1CC(=O)NCC[C@H](NC(=O)[C@H](CCCNC(=N)N)NC(=O)CC[C@H](NC(=O)CCCCCCCCCCCCCCCCCCC(=O)O)C(=O)O)C(=O)NCC(=O)N[C@@H]([C@@H](C)O)C(=O)N[C@@H](C)C(=O)N[C@@H]([C@@H](C)O)C(=O)N1)[C@@H](C)O
B2: Compound 44 (peptide)
peptide: {C20 diacid-γGlu}-KDGTATKATQRLANFLQRSSF[Sar]A[NMeI]LSSTETGSNT[Hyp]-NH2
modifications: lactam 2-7
SMILES: CC[C@H](C)[C@@H](C(=O)N[C@@H](CC(C)C)C(=O)N[C@@H](CO)C(=O)N[C@@H](CO)C(=O)N[C@H](C(=O)N[C@@H](CCC(=O)O)C(=O)N[C@H](C(=O)NCC(=O)N[C@@H](CO)C(=O)N[C@@H](CC(N)=O)C(=O)N[C@H](C(=O)N1C[C@H](O)C[C@H]1C(N)=O)[C@@H](C)O)[C@@H](C)O)[C@@H](C)O)N(C)C(=O)[C@H](C)NC(=O)CN(C)C(=O)[C@H](Cc1ccccc1)NC(=O)[C@H](CO)NC(=O)[C@H](CO)NC(=O)[C@H](CCCNC(=N)N)NC(=O)[C@H](CCC(N)=O)NC(=O)[C@H](CC(C)C)NC(=O)[C@H](Cc1ccccc1)NC(=O)[C@H](CC(N)=O)NC(=O)[C@H](C)NC(=O)[C@H](CC(C)C)NC(=O)[C@H](CCCNC(=N)N)NC(=O)[C@H](CCC(N)=O)NC(=O)[C@@H](NC(=O)[C@H](C)NC(=O)[C@@H]1CCCCNC(=O)C[C@H](NC(=O)[C@H](CCCCN)NC(=O)CC[C@H](NC(=O)CCCCCCCCCCCCCCCCCCC(=O)O)C(=O)O)C(=O)NCC(=O)N[C@@H]([C@@H](C)O)C(=O)N[C@@H](C)C(=O)N[C@@H]([C@@H](C)O)C(=O)N1)[C@@H](C)O
B3: Compound 45 (peptide)
peptide: {C20 diacid-γGlu}-R[Dap]GTATDATERLAHFLQRSSF[Sar]A[NMeI]LSSTEVGSNT[Hyp]-NH2
modifications: lactam 2-7
SMILES: CC[C@H](C)[C@@H](C(=O)N[C@@H](CC(C)C)C(=O)N[C@@H](CO)C(=O)N[C@@H](CO)C(=O)N[C@H](C(=O)N[C@@H](CCC(=O)O)C(=O)N[C@H](C(=O)NCC(=O)N[C@@H](CO)C(=O)N[C@@H](CC(N)=O)C(=O)N[C@H](C(=O)N1C[C@H](O)C[C@H]1C(N)=O)[C@@H](C)O)C(C)C)[C@@H](C)O)N(C)C(=O)[C@H](C)NC(=O)CN(C)C(=O)[C@H](Cc1ccccc1)NC(=O)[C@H](CO)NC(=O)[C@H](CO)NC(=O)[C@H](CCCNC(=N)N)NC(=O)[C@H](CCC(N)=O)NC(=O)[C@H](CC(C)C)NC(=O)[C@H](Cc1ccccc1)NC(=O)[C@H](Cc1c[nH]cn1)NC(=O)[C@H](C)NC(=O)[C@H](CC(C)C)NC(=O)[C@H](CCCNC(=N)N)NC(=O)[C@H](CCC(=O)O)NC(=O)[C@@H](NC(=O)[C@H](C)NC(=O)[C@@H]1CC(=O)NC[C@H](NC(=O)[C@H](CCCNC(=N)N)NC(=O)CC[C@H](NC(=O)CCCCCCCCCCCCCCCCCCC(=O)O)C(=O)O)C(=O)NCC(=O)N[C@@H]([C@@H](C)O)C(=O)N[C@@H](C)C(=O)N[C@@H]([C@@H](C)O)C(=O)N1)[C@@H](C)O
B4: Compound 48 (peptide)
peptide: {C20 diacid-γGlu}-R[Dap]GTAT[Aad]ATERLAHFLQRSSF[Sar]A[NMeI]LSSTEVGSNT[Hyp]-NH2
modifications: lactam 2-7
SMILES: CC[C@H](C)[C@@H](C(=O)N[C@@H](CC(C)C)C(=O)N[C@@H](CO)C(=O)N[C@@H](CO)C(=O)N[C@H](C(=O)N[C@@H](CCC(=O)O)C(=O)N[C@H](C(=O)NCC(=O)N[C@@H](CO)C(=O)N[C@@H](CC(N)=O)C(=O)N[C@H](C(=O)N1C[C@H](O)C[C@H]1C(N)=O)[C@@H](C)O)C(C)C)[C@@H](C)O)N(C)C(=O)[C@H](C)NC(=O)CN(C)C(=O)[C@H](Cc1ccccc1)NC(=O)[C@H](CO)NC(=O)[C@H](CO)NC(=O)[C@H](CCCNC(=N)N)NC(=O)[C@H](CCC(N)=O)NC(=O)[C@H](CC(C)C)NC(=O)[C@H](Cc1ccccc1)NC(=O)[C@H](Cc1c[nH]cn1)NC(=O)[C@H](C)NC(=O)[C@H](CC(C)C)NC(=O)[C@H](CCCNC(=N)N)NC(=O)[C@H](CCC(=O)O)NC(=O)[C@@H](NC(=O)[C@H](C)NC(=O)[C@@H]1CCCC(=O)NC[C@H](NC(=O)[C@H](CCCNC(=N)N)NC(=O)CC[C@H](NC(=O)CCCCCCCCCCCCCCCCCCC(=O)O)C(=O)O)C(=O)NCC(=O)N[C@@H]([C@@H](C)O)C(=O)N[C@@H](C)C(=O)N[C@@H]([C@@H](C)O)C(=O)N1)[C@@H](C)O
B5: Compound 47 (peptide)
peptide: {C20 diacid-γGlu}-R[Orn]GTATDATERLAHFLQRSSF[Sar]A[NMeI]LSSTEVGSNT[Hyp]-NH2
modifications: lactam 2-7
SMILES: CC[C@H](C)[C@@H](C(=O)N[C@@H](CC(C)C)C(=O)N[C@@H](CO)C(=O)N[C@@H](CO)C(=O)N[C@H](C(=O)N[C@@H](CCC(=O)O)C(=O)N[C@H](C(=O)NCC(=O)N[C@@H](CO)C(=O)N[C@@H](CC(N)=O)C(=O)N[C@H](C(=O)N1C[C@H](O)C[C@H]1C(N)=O)[C@@H](C)O)C(C)C)[C@@H](C)O)N(C)C(=O)[C@H](C)NC(=O)CN(C)C(=O)[C@H](Cc1ccccc1)NC(=O)[C@H](CO)NC(=O)[C@H](CO)NC(=O)[C@H](CCCNC(=N)N)NC(=O)[C@H](CCC(N)=O)NC(=O)[C@H](CC(C)C)NC(=O)[C@H](Cc1ccccc1)NC(=O)[C@H](Cc1c[nH]cn1)NC(=O)[C@H](C)NC(=O)[C@H](CC(C)C)NC(=O)[C@H](CCCNC(=N)N)NC(=O)[C@H](CCC(=O)O)NC(=O)[C@@H](NC(=O)[C@H](C)NC(=O)[C@@H]1CC(=O)NCCC[C@H](NC(=O)[C@H](CCCNC(=N)N)NC(=O)CC[C@H](NC(=O)CCCCCCCCCCCCCCCCCCC(=O)O)C(=O)O)C(=O)NCC(=O)N[C@@H]([C@@H](C)O)C(=O)N[C@@H](C)C(=O)N[C@@H]([C@@H](C)O)C(=O)N1)[C@@H](C)O
B6: Compound 43 (peptide)
peptide: {C20 diacid-γGlu}-KDGTATKATQRLANFLQRSSF[Sar]A[NMeI]LSSTEVGSNT[Hyp]-NH2
modifications: lactam 2-7
SMILES: CC[C@H](C)[C@@H](C(=O)N[C@@H](CC(C)C)C(=O)N[C@@H](CO)C(=O)N[C@@H](CO)C(=O)N[C@H](C(=O)N[C@@H](CCC(=O)O)C(=O)N[C@H](C(=O)NCC(=O)N[C@@H](CO)C(=O)N[C@@H](CC(N)=O)C(=O)N[C@H](C(=O)N1C[C@H](O)C[C@H]1C(N)=O)[C@@H](C)O)C(C)C)[C@@H](C)O)N(C)C(=O)[C@H](C)NC(=O)CN(C)C(=O)[C@H](Cc1ccccc1)NC(=O)[C@H](CO)NC(=O)[C@H](CO)NC(=O)[C@H](CCCNC(=N)N)NC(=O)[C@H](CCC(N)=O)NC(=O)[C@H](CC(C)C)NC(=O)[C@H](Cc1ccccc1)NC(=O)[C@H](CC(N)=O)NC(=O)[C@H](C)NC(=O)[C@H](CC(C)C)NC(=O)[C@H](CCCNC(=N)N)NC(=O)[C@H](CCC(N)=O)NC(=O)[C@@H](NC(=O)[C@H](C)NC(=O)[C@@H]1CCCCNC(=O)C[C@H](NC(=O)[C@H](CCCCN)NC(=O)CC[C@H](NC(=O)CCCCCCCCCCCCCCCCCCC(=O)O)C(=O)O)C(=O)NCC(=O)N[C@@H]([C@@H](C)O)C(=O)N[C@@H](C)C(=O)N[C@@H]([C@@H](C)O)C(=O)N1)[C@@H](C)O
B7: Compound 49 (peptide)
peptide: {C20 diacid-γGlu}-R[Dab]GTATEATERLAHFLQRSSF[Sar]A[NMeI]LSSTEVGSNT[Hyp]-NH2
modifications: lactam 2-7
SMILES: CC[C@H](C)[C@@H](C(=O)N[C@@H](CC(C)C)C(=O)N[C@@H](CO)C(=O)N[C@@H](CO)C(=O)N[C@H](C(=O)N[C@@H](CCC(=O)O)C(=O)N[C@H](C(=O)NCC(=O)N[C@@H](CO)C(=O)N[C@@H](CC(N)=O)C(=O)N[C@H](C(=O)N1C[C@H](O)C[C@H]1C(N)=O)[C@@H](C)O)C(C)C)[C@@H](C)O)N(C)C(=O)[C@H](C)NC(=O)CN(C)C(=O)[C@H](Cc1ccccc1)NC(=O)[C@H](CO)NC(=O)[C@H](CO)NC(=O)[C@H](CCCNC(=N)N)NC(=O)[C@H](CCC(N)=O)NC(=O)[C@H](CC(C)C)NC(=O)[C@H](Cc1ccccc1)NC(=O)[C@H](Cc1c[nH]cn1)NC(=O)[C@H](C)NC(=O)[C@H](CC(C)C)NC(=O)[C@H](CCCNC(=N)N)NC(=O)[C@H](CCC(=O)O)NC(=O)[C@@H](NC(=O)[C@H](C)NC(=O)[C@@H]1CCC(=O)NCC[C@H](NC(=O)[C@H](CCCNC(=N)N)NC(=O)CC[C@H](NC(=O)CCCCCCCCCCCCCCCCCCC(=O)O)C(=O)O)C(=O)NCC(=O)N[C@@H]([C@@H](C)O)C(=O)N[C@@H](C)C(=O)N[C@@H]([C@@H](C)O)C(=O)N1)[C@@H](C)O

Tests used:
[1] = biological target: recombinant human calcitonin receptor (hCT-R) (human), P30988; experiment: cell-based or functional assay
Chain of recombinant human calcitonin receptor (hCT-R) (human), P30988 (P30988 25-474): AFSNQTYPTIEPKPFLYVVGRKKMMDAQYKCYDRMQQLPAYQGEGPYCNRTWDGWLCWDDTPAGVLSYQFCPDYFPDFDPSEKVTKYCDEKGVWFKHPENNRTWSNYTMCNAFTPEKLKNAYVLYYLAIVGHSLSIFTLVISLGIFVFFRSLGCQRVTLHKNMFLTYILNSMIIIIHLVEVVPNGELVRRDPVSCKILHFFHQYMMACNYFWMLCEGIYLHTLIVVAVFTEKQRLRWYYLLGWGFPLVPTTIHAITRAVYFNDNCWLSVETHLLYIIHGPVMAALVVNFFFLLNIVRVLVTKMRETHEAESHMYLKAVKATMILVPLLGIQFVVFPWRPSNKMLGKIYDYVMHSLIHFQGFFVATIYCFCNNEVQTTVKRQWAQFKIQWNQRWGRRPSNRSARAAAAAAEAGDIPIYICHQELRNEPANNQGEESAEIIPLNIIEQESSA

[2] = biological target: recombinant human amylin 3 receptor (hAMYR3) (human), P30988; experiment: cell-based or functional assay
Chain of recombinant human amylin 3 receptor (hAMYR3) (human), P30988 (P30988 25-474, chain 1 of 2): as the sequence (P30988 25-474) above
Chain of recombinant human amylin 3 receptor (hAMYR3) (human), P30988 (O60896 24-148, chain 2 of 2, further chain): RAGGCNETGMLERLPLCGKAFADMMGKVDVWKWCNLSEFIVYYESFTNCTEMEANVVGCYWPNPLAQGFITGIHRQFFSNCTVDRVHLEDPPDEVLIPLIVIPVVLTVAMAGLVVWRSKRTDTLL

Binder	hCT-R EC50 [nM] (cAMP formation, 1321N1 cells expressing hCT-R) [1]	hAMYR3 EC50 [nM] (cAMP formation, 1321N1 cells expressing hAMYR3) [2]
B1	7.5 nM	5.5 nM
B2	0.02 nM	0.009 nM
B3	299 nM	279 nM
B4	0.107 nM	0.02 nM
B5	10.8 nM	7.7 nM
B6	0.021 nM	0.007 nM
B7	1.04 nM	0.442 nM

From patent US20180071366A1
